Biological target: the molecule itself
Assay: crystal structure; X-ray crystallography of β4ex; antiparallel contacts between β4ex molecules in the crystal lattice; crystals from 30% (w/v) PEG 1500, sitting drop, 20 °C

B1: mouse β4 subunit extracellular domain fragment (domain or fragment, UniProt Q7M729 30-160, looked up)
chain: SLEVSVGKATTIYAINGSSILLPCTFSSCYGFENLYFKWSYNNSETSRILIDGIVKNDKSDPKVRVKDDDRITLEGSTKEKTNNISILLSDLEFSDTGRYTCFVRNPKEKDLNNSATIFLQVVDKLEKVDN
notes: voltage-gated sodium channel β4 subunit, mouse, residues 30-160; amino acid numbering starts from the initiator methionine; His tag removed by TEV protease; contains all three Cys residues; also called β4ex; β4 extracellular domain; source: Escherichia coli cell-free method, purified (HisTrap, TEV cleavage, Mono Q, Superdex 75); not shown: histidine tag, N-terminal, cleaved
B1: binds.

Source: article PMC4877568, “Structure-based site-directed photo-crosslinking analyses of multimeric cell-adhesive interactions of voltage-gated sodium channel β subunits” (Scientific Reports, 2016)
